The target in experiment [1] is A1 subunit of the RNA polymerase, endogenous (Pyrococcus abyssi (endogenous in P. abyssi cell extract)).
Experiment [2] addresses A2 subunit of the RNA polymerase, endogenous (Pyrococcus abyssi (endogenous in P. abyssi cell extract)).
Experiment [3] has as its target Replication Protein A (Q9V1Z1, Q9V1Y9, Q9V1Z0), His-tagged RPA complex (Pyrococcus abyssi). The experiment can be described thus: SPR; RPA (100 nM, 10 min) held on a 5' biotinylated 32-mer ssDNA on a streptavidin surface; analytes injected at 16.67, 50, 150 and 450 nM; 25°C, PBS Tween 0.5%, 20 uL/min; referenced against ssDNA/RPA dissociation curves; 1:1 binding model. (In general: SPR reads the build-up and loss of mass on a sensor chip optically.)

Turning to “Replication Protein A (Q9V1Z1, Q9V1Y9, Q9V1Z0), His-tagged RPA complex”, the run-off transcripts in a promoter-specific in vitro transcription assay (gdh promoter; RNAP, TBP and TFB from P. furiosus), RPA 10-50 nM in experiment [1] and in experiment [2] was 3 fold in each case.

In turn, “DNA Polymerase D (Q9V2F3, Q9V2F4), HIS-tagged complex (from UniProt Q9V2F3 1-619; Q9V2F4 1-1455)” had a stability relative to the RPA/catalytic subunit of DNA primase complex (from the dissociation constants of Figure 2) in experiment [3] of 2 fold.

The values are drawn from publication PMC3820547.
